Experimental data: patent US20040014721A1, “Method for using tethered bis(polyhydroxyphenyls) and O-alkyl derivatives thereof in treating inflammatory conditions of the central nervous system” (Oklahoma Medical Research Foundation, priority 2002, published 2004)

T1: human 5LOX (Homo sapiens, UniProt P09917)
T1 construct: purchased Cayman Chemical
T1 sequence (P09917 1-674): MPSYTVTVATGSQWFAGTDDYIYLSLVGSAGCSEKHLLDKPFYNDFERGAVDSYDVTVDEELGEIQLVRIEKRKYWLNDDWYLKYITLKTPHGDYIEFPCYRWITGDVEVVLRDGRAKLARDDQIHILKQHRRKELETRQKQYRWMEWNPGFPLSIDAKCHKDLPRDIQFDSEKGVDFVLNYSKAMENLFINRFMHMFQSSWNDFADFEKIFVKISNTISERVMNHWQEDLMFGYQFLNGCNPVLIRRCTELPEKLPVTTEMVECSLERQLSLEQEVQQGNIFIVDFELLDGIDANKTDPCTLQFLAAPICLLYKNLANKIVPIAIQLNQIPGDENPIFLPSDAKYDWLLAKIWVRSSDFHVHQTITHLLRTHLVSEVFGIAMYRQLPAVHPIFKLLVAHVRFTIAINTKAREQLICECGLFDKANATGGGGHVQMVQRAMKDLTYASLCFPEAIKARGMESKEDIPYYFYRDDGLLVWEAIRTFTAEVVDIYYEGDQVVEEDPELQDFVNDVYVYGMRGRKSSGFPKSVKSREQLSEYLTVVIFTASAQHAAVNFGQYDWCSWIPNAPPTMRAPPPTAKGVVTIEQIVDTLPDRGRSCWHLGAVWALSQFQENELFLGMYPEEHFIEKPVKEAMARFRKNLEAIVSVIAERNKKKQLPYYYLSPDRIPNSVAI


Assays:
[1] = target: T1, human 5LOX; assay: Microtiter plate binding of SOD1 to immobilized 5LOX; conditions: Scatchard analysis, estimate
Procedure: In order to circumvent these limitations of the BIAcore technique, a conceptually different strategy was employed to assess SOD1 binding to immobilized 5LOX. Standard 96 well polypropylene microtiter plates were coated with 5LOX by overnight incubation with the protein, which allows adsorption of the 5LOX through mostly hydrophobic interactions with the plate surface. As a control, half of each microplate was coated with BSA. The entire plate was then blocked with BSA, and subsequently incubated for 1 H with various concentrations of SOD1 dissolved in physiologic saline. Binding of SOD1 to the 5LOX-coated (or BSA-coated) microplate wells was quantified using alkaline phosphatase-conjugated anti-SOD1 polyclonal IgG, and p-nitrophenol as the chromophore. FIG. 15 illustrates preliminary binding data obtained from this experiment. SOD1 bound strongly to 5LOX-coated microplates but not to BSA-coated surfaces. […] Experiments may also be conducted to assess differences in 5LOX binding to wild-type versus mutant SOD1.

[2] = target: T2, human wild-type SOD1 (Homo sapiens, UniProt P00441); assay: BIAcore binding of 5LOX to immobilized SOD1; conditions: preliminary Scatchard analysis, upper bound
T2 construct: purified to homogeneity from human erythrocytes; from tissue; host or cells: human erythrocytes
T2 sequence (P00441 2-154 limits assumed): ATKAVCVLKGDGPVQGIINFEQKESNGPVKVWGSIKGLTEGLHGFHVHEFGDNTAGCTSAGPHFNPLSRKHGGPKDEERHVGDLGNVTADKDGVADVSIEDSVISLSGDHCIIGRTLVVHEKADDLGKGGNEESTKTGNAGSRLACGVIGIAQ
Text: Using several techniques that allow the study of protein-protein binding interactions in vitro, the interaction of SOD1 with 5LOX may be investigated. One approach involves the use of BIAcore instrumentation (Amersham-Pharmacia, Upsala, Sweden). The BIA (biomolecular interaction analysis) system consists of a solid-phase support upon which a protein (the ligand) can be covalently immobilized. This surface is placed in contact with a microfluidic cartridge, which dispenses a second protein (the analyte) across the binding surface. Adherence of the analyte to the immobilized ligand is measured by surface plasmon resonance (SPR) spectrometry. The surface plasmon resonance detector responds to refractive index changes in the vicinity of the sensor surface as the immobilized species interacts with its binding partner in the fluid phase. Data output from the BIAcore instrument takes the form of “sensorgrams” (FIG. 14A). Sensorgrams can be interpreted qualitatively, to assess whether a nonspecific binding event occurs, or quantitatively, in order to measure binding affinity.
In a previous experiment, human wild-type SOD1 (purified to homogeneity from human erythrocytes) was covalently immobilized to the BIAcore chip via surface lysine residues, using standard carbodiimide coupling chemistry. […] Experiments to quantitate the binding affinity are conducted. […]

Kd [1] [nM] | Kd [2] [nM] | Molecule
1400 | – | SOD1: Cu, Zn-superoxide dismutase, binding partner of 5LOX
– | ≤ 20000 | 5LOX: Human recombinant 5LOX (Cayman Chemical) (protein, UniProt P09917 1-674, looked up) Polyunsaturated fatty acid …: MPSYTVTVATGSQWFAGTDDYIYLSLVGSAGCSEKHLLDKPFYNDFERGAVDSYDVTVDEELGEIQLVRIEKRKYWLNDDWYLKYITLKTPHGDYIEFPCYRWITGDVEVVLRDGRAKLARDDQIHILKQHRRKELETRQKQYRWMEWNPGFPLSIDAKCHKDLPRDIQFDSEKGVDFVLNYSKAMENLFINRFMHMFQSSWNDFADFEKIFVKISNTISERVMNHWQEDLMFGYQFLNGCNPVLIRRCTELPEKLPVTTEMVECSLERQLSLEQEVQQGNIFIVDFELLDGIDANKTDPCTLQFLAAPICLLYKNLANKIVPIAIQLNQIPGDENPIFLPSDAKYDWLLAKIWVRSSDFHVHQTITHLLRTHLVSEVFGIAMYRQLPAVHPIFKLLVAHVRFTIAINTKAREQLICECGLFDKANATGGGGHVQMVQRAMKDLTYASLCFPEAIKARGMESKEDIPYYFYRDDGLLVWEAIRTFTAEVVDIYYEGDQVVEEDPELQDFVNDVYVYGMRGRKSSGFPKSVKSREQLSEYLTVVIFTASAQHAAVNFGQYDWCSWIPNAPPTMRAPPPTAKGVVTIEQIVDTLPDRGRSCWHLGAVWALSQFQENELFLGMYPEEHFIEKPVKEAMARFRKNLEAIVSVIAERNKKKQLPYYYLSPDRIPNSVAI
